From PMC8754639

Assays:
DHX36 (RHAU) = molecular target: T1, DHX36 (RHAU) (UniProt Q9H2U1 1-1008); assay: MST
T1 sequence: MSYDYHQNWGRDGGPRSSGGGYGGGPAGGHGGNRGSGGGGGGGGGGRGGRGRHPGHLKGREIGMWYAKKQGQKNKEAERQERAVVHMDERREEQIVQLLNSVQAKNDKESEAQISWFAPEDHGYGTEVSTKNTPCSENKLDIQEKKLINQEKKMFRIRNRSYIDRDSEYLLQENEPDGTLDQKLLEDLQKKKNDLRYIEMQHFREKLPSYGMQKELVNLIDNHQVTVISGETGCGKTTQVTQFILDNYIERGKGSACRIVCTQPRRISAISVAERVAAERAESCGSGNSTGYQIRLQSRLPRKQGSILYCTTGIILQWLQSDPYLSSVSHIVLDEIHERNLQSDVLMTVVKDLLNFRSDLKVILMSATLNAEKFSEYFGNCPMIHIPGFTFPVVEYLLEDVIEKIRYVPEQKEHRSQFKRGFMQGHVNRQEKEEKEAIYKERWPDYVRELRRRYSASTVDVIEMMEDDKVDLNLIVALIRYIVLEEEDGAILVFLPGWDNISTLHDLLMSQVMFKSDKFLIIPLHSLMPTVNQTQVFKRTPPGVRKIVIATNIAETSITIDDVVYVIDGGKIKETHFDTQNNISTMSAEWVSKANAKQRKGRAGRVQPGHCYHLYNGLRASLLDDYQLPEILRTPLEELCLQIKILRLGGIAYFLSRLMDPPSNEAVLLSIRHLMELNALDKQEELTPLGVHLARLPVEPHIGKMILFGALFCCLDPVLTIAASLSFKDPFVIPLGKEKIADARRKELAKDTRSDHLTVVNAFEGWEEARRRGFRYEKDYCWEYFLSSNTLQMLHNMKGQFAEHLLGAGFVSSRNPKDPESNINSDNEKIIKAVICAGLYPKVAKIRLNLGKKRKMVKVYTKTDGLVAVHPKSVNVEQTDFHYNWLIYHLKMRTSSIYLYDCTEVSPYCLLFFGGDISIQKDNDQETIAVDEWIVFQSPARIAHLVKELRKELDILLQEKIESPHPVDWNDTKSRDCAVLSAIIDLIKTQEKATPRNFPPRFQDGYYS

RHAU53 peptide = molecular target: T2, RHAU53 peptide (UniProt Q9H2U1 53-105); assay: MST competition
T2 sequence: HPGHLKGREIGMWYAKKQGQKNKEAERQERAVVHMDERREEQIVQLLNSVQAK

NONO (53-312) [1] = molecular target: T3, NONO (53-312) (UniProt Q15233 53-312); assay: EMSA
T3 sequence: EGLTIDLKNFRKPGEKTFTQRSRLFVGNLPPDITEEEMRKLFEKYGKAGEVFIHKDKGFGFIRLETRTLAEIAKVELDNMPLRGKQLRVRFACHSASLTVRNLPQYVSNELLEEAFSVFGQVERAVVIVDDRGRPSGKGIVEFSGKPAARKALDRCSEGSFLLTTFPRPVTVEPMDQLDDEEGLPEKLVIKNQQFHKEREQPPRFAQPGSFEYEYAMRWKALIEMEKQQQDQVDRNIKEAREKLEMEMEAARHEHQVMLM

NONO (53-312) [2] = molecular target: T3, NONO (53-312); assay: filter binding

B1: MALAT1 rG4_04 (FAM) (structured_RNA)
RNA: AGGGUGGGCUUUUGUUGAUGAGGGAGGGGA
DHX36 (RHAU)
  Kd: 130 ± 16 nM
RHAU53 peptide
  IC50: 621 ± 95.3 nM
NONO (53-312) [1]
  Kd: 46.9 ± 12.1 nM

B2: MALAT1 rG4_09 (FAM) (structured_RNA)
RNA: AGGGGAGGGAAAGGGGGAAAGCGGGC
NONO (53-312) [1]
  Kd: 80.9 ± 18.1 nM

B3: MALAT1 rG4_09 MUT (biotin) (ssRNA)
RNA: AGAAGAGAGAAAGAAAGAAAGCGAGC
NONO (53-312) [2]
  binding result: no binding
